Data set [1] concerns HeLa Kyoto. As to the kind of experiment: solubility in G1/S (NP-40 vs SDS abundance) (log2 ratio); higher = more soluble. As to conditions: cell cycle stage: G1/S.
Data set [2] has as its system HeLa Kyoto. Briefly: solubility change mitosis vs G1/S (difference of NP-40 vs SDS log2 ratios) (log2 ratio difference); higher = more soluble in mitosis.
The test system of data set [3] is HeLa Kyoto. As to the kind of experiment: melting temperature (median over replicates), in situ; higher = more thermally stable.
The subject of data set [4] is HeLa Kyoto. Briefly: thermal stability score vs G1/S (z-score of summed log2 fold changes over temperatures); higher = more thermally stable than in G1/S.
[5] abbreviates: cell cycle stage: early G1 (4.5 h after nocodazole release).

This note sets out measurements from the supplement of paper PMC5998384.
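Throughout, for melting temperature (median over replicates), in situ: HeLa Kyoto cells synchronized by double thymidine or nocodazole block, proteins quantified by TMT10plex mass spectrometry, three independent biological replicates.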
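Throughout, for solubility change mitosis vs G1/S (difference of NP-40 vs SDS log2 ratios): synchronized HeLa Kyoto cells (double thymidine block for G1/S, nocodazole release for mitosis), protein amounts in NP-40 versus SDS lysates quantified by mass spectrometry, three biological replicates.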
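Throughout, for solubility in G1/S (NP-40 vs SDS abundance): HeLa Kyoto cells arrested at G1/S by double thymidine block, proteins quantified by TMT10plex mass spectrometry in mild NP-40 versus SDS extracts, three biological replicates.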
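Throughout, for thermal stability score vs G1/S (z-score of summed log2 fold changes over temperatures): synchronized HeLa Kyoto cells, proteins quantified by TMT10plex mass spectrometry, three biological replicates, mitosis taken 0.5 h after nocodazole release, G1/S directly after double thymidine block.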

NDRG3, sequence (chain, as listed by the source): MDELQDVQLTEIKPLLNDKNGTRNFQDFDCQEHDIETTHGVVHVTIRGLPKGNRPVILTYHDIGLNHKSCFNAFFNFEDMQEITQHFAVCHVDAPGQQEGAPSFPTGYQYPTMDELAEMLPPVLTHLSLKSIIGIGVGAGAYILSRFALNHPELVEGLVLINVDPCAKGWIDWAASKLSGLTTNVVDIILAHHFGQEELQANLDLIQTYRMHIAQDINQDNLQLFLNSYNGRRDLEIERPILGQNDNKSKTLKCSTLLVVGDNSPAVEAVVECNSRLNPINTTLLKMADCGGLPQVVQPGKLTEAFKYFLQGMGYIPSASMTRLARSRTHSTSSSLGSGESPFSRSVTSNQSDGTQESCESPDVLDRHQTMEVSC

Consider “MDWLMGKSKAKPNGKKPAAEERKAYLEPEHTKARITDFQFKELVVLPREIDLNEWLASNTTTFFHHINLQYSTISEFCTGETCQTMAVCNTQYYWYDERGKKVKCTAPQYVDFVMSSVQKLVTDEDVFPTKYGREFPSSFESLVRKICRHLFHVLAHIYWAHFKETLALELHGHLNTLYVHFILFAREFNLLDPKETAIMDDLTEVLCSGAGGVHSGGSGDGAGSGGPGAQNHVKER [MOB2]”, for which the “solubility in G1/S (log2)” value in data set [1] was -0.0333. In data set [2], the “solubility change mitosis (log2)” value turned out to be 0.0638. This substance also showed a melting temperature in data set [3] (cell cycle stage: G1/S) of 50.1 °C. The thermal stability score came out at 0.797 in data set [4] (setting [5]) and 0.832 in data set [4] (cell cycle stage: mitosis).

Take “MPKGGRKGGHKGRARQYTSPEEIDAQLQAEKQKAREEEEQKEGGDGAAGDPKKEKKSLDSDESEDEEDDYQQKRKGVEGLIDIENPNRVAQTTKKVTQLDLDGPKELSRREREEIEKQKAKERYMKMHLAGKTEQAKADLARLAIIRKQREEAARKKEEERKAKDDATLSGKRMQSLSLNK [PDAP1]”: the “solubility in G1/S (log2)” value in data set [1] came to 0.734. Further, the “solubility change mitosis (log2)” value in data set [2] amounted to 0.473. Moreover, the melting temperature in data set [3] (cell cycle stage: G1/S) was found to be 57.9 °C; in data set [3] (cell cycle stage: mitosis) it was 54.2 °C. Besides, the thermal stability score in data set [4] (setting [5]) was -6.85; in data set [4] (cell cycle stage: mitosis) it was -6.55.

For “MSAQAQMRALLDQLMGTARDGDETRQRVKFTDDRVCKSHLLDCCPHDILAGTRMDLGECTKIHDLALRADYEIASKERDLFFELDAMDHLESFIAECDRRTELAKKRLAETQEEISAEVSAKAEKVHELNEEIGKLLAKAEQLGAEGNVDESQKILMEVEKVRAKKKEAEEEYRNSMPASSFQQQKLRVCEVCSAYLGLHDNDRRLADHFGGKLHLGFIQIREKLDQLRKTVAEKQEKRNQDRLRRREEREREERLSRRSGSRTRDRRRSRSRDRRRRRSRSTSRERRKLSRSRSRDRHRRHRSRSRSHSRGHRRASRDRSAKYKFSRERASREESWESGRSERGPPDWRLESSNGKMASRRSEEKEAGEI [LUC7L]”, in data set [1], the “solubility in G1/S (log2)” value is -0.598. For the same substance, in data set [2], the “solubility change mitosis (log2)” value was found to be 0.353. For the same substance, the results for the melting temperature in data set [3] (cell cycle stage: G1/S) and in data set [3] (cell cycle stage: mitosis) were 50.1 °C and 51.4 °C, respectively. The thermal stability score came to 1.93 in data set [4] (setting [5]) and 1.87 in data set [4] (cell cycle stage: mitosis).

As to “MPRPGSAQRWAAVAGRWGCRLLALLLLVPGPGGASEITFELPDNAKQCFYEDIAQGTKCTLEFQVITGGHYDVDCRLEDPDGKVLYKEMKKQYDSFTFTASKNGTYKFCFSNEFSTFTHKTVYFDFQVGEDPPLFPSENRVSALTQMESACVSIHEALKSVIDYQTHFRLREAQGRSRAEDLNTRVAYWSVGEALILLVVSIGQVFLLKSFFSDKRTTTTRVGS [TMED7]”, in data set [1], the “solubility in G1/S (log2)” value was -0.0739. Further, the “solubility change mitosis (log2)” value in data set [2] is -0.174. The melting temperature in data set [3] (cell cycle stage: G1/S) worked out at 57.2 °C; in data set [3] (cell cycle stage: mitosis), 56.4 °C. Also, the thermal stability score in data set [4] (setting [5]) was determined as 2.43; in data set [4] (cell cycle stage: mitosis) it was 0.528.

As to NDRG3, in data set [1], the “solubility in G1/S (log2)” value amounted to 0.351. The “solubility change mitosis (log2)” value in data set [2] is -0.371. Moreover, the melting temperature in data set [3] (cell cycle stage: G1/S) was 52.2 °C; in data set [3] (cell cycle stage: mitosis), 52 °C. The thermal stability score in data set [4] (setting [5]) is 0.668; in data set [4] (cell cycle stage: mitosis) it was 0.934.

On to “MLPYTVNFKVSARTLTGALNAHNKAAVDWGWQGLIAYGCHSLVVVIDSITAQTLQVLEKHKADVVKVKWARENYHHNIGSPYCLRLASADVNGKIIVWDVAAGVAQCEIQEHAKPIQDVQWLWNQDASRDLLLAIHPPNYIVLWNADTGTKLWKKSYADNILSFSFDPFDPSHLTLLTSEGIVFISDFSPSKPPSGPGKKVYISSPHSSPAHNKLATATGAKKALNKVKILITQEKPSAEFITLNDCLQLAYLPSKRNHMLLLYPREILILDLEVNQTVGVIAIERTGVPFLQVIPCFQRDGLFCLHENGCITLRVRRSYNNIFTTSNEEPDPDPVQELTYDLRSQCDAIRVTKTVRPFSMVCCPVNENAAALVVSDGRVMIWELKSAVCNRNSRNSSSGVSPLYSPVSFCGIPVGVLQNKLPDLSLDNMIGQSAIAGEEHPRGSILREVHLKFLLTGLLSGLPAPQFAIRMCPPLTTKNIKMYQPLLAVGTSNGSVLVYHLTSGLLHKELSIHSCEVKGIEWTSLTSFLSFATSTPNNMGLVRNELQLVDLPTGRSIAFRGERGNDESAIEMIKVSHLKQYLAVVFRDKPLELWDVRTCTLLREMSKNFPTITALEWSPSHNLKSLRKKQLATREAMARQTVVSDTELSIVESSVISLLQEAESKSELSQNISAREHFVFTDIDGQVYHLTVEGNSVKDSARIPPDGSMGSITCIAWKGDTLVLGDMDGNLNFWDLKGRVSRGIPTHRSWVRKIRFAPGKGNQKLIAMYNDGAEVWDTKEVQMVSSLRSGRNVTFRILDVDWCTSDKVILASDDGCIRVLEMSMKSACFRMDEQELTEPVWCPYLLVPRASLALKAFLLHQPWNGQYSLDISHVDYPENEEIKNLLQEQLNSLSNDIKKLLLDPEFTLLQRCLLVSRLYGDESELHFWTVAAHYLHSLSQEKSASTTAPKEAAPRDKLSNPLDICYDVLCENAYFQKFQLERVNLQEVKRSTYDHTRKCTDQLLLLGQTDRAVQLLLETSADNQHYYCDSLKACLVTTVTSSGPSQSTIKLVATNMIANGKLAEGVQLLCLIDKAADACRYLQTYGEWNRAAWLAKVRLNPEECADVLRRWVDHLCSPQVNQKSKALLVLLSLGCFFSVAETLHSMRYFDRAALFVEACLKYGAFEVTEDTEKLITAIYADYARSLKNLGFKQGAVLFASKAGAAGKDLLNELESPKEEPIEE [WDR11]”, for which, in data set [1], the “solubility in G1/S (log2)” value was -0.123. Also, the “solubility change mitosis (log2)” value in data set [2] was -0.106. Further, the melting temperature in data set [3] (cell cycle stage: G1/S) was 52.8 °C; in data set [3] (cell cycle stage: mitosis) it was 53.4 °C. For the same substance, the thermal stability score in data set [4] (setting [5]) came out at 1.39; in data set [4] (cell cycle stage: mitosis) it was 0.377.
